Test results reported in publication PMC7036363, “Analysis of HrpG regulons and HrpG‐interacting proteins by ChIP‐seq and affinity proteomics in Xanthomonas campestris”.

B1: Motif-2 (mutated HrpG motif probe) (dsDNA)
DNA 1: CTTCGAAGTGAGAACGGAATCCGGATCCGC
DNA 2: GCGGATCCGGATTCCGTTCTCACTTCGAAG
B2: Motif-1 (HrpG consensus motif probe) (dsDNA)
DNA 1: CTTCGAAGTGAGAAATTCTATTGGATCCGC
DNA 2: GCGGATCCAATAGAATTTCTCACTTCGAAG

Legend:
[1] = target: recombinant HUXcc-His6 (Xanthomonas campestris pv. campestris); test: MST; HUXcc labelled with NT-647 (RED-NHS kit), purified HrpG titrated from 0.001 to 17 μM in a 1:1 series dilution; 1 x MST buffer (50 mM Tris, 150 mM NaCl, 10 mM MgCl2, pH 6) with 0.05% Tween; Monolith NT.115, standard treated capillaries; KD-Fit function
[2] = target: HrpG (Xanthomonas campestris pv. campestris 8004) (UniProt Q8PBF6); test: MST; conditions: MST: 50 mM Tris-HCl pH 7.4, 150 mM NaCl, 10 mM MgCl2, 0.05% Tween-20; EMSA: 10 mM Tris-HCl pH 7.5, 50 mM KCl, 1 mM DTT, 50 ng poly(dI:dC), 0-40 uM protein …
HrpG = HrpG (Xanthomonas campestris pv. campestris …, UniProt Q8PBF6 1-262); test: MST; 10 mM MgCl2; MST: 50 mM Tris-HCl pH 7.4, 150 mM NaCl, 10 mM MgCl2, 0.05% Tween-20; EMSA: 10 mM Tris-HCl pH 7.5, 50 mM KCl, 1 mM DTT, 50 ng poly(dI:dC), 0-40 uM protein, 28 C 30 min; conditions: protein: recombinant; text writes HrpG-His6; chain copies: 2; label: 5'-FAM; blunt

Row | Molecule | Kd [2] [nM] | other results
1 | HrpG-His6 recombinant protein (natural protein) | – | Kd [1]: 640 nM
2 | hpa2p MST fragment | 2220 | –
3 | hrcUp MST fragment | 1790 | –
4 | hrpEp MST fragment | 2300 | –
5 | B1 | – | binding result (HrpG): no binding
6 | B2 | – | Kd (HrpG): 6960 ± 1440 nM
